# Reference: patent publication US20200390853A1, “ACTIVE PEPTIDE FOR ENHANCING THE PHAGOCYTIC FUNCTIONS OF RETINAL PIGMENT EPITHELIUM AND A USE THEREOF” (Beijing Tongren Hospital, Capital Medical University, priority 2019, published 2020)
# Tests used:
# [1] = tested on: AKT phosphorylation level downstream of MerTK; assay: AKT phosphorylation level in RPE cells cultivated in vitro (Western blotting, pAKT/GAPDH); assay type: cell-based; conditions: 200 ng/ml and 800 ng/ml, 30 minutes, vs blank control
# Method: Segmented cloning was conducted according to the functional domain of Gas6 protein, wherein the sequence of EGF-LamininG functional domain is the primary active peptide sequence (G3, named as Gas6-LamininG active peptide).
# RPE cells = assay: Model of in vitro RPE phagocytosis (disc membrane uptake, laser confocal); assay type: cell-based; conditions: after 3 h of RPE phagocytosis, p<0.05 between groups
Molecule,Akt phosphorylation level (relative gray value of pAKT/GAPDH) [1],contents of disc membranes taken up (RPE phagocytosis capacity) (RPE cells)
"Gas6 full-length proteins: Gas6 full-length proteins used as comparator (protein, UniProt Q14393 1-678, looked up, full-length, Gas6 full-length proteins used as comparator) MAPSLSPGPAALRRAPQLLLLLLAAECALAALLPAREATQFLRPRQRRAFQVFEEAKQGHLERECVEELCSREEAREVFENDPETDYFYPRYLDCINKYGSPYTKNSGFATCVQNLPDQCTPNPCDRKGTQACQDLMGNFFCLCKAGWGGRLCDKDVNECSQENGGCLQICHNKPGSFHCSCHSGFELSSDGRTCQDIDECADSEACGEARCKNLPGSYSCLCDEGFAYSSQEKACRDVDECLQGRCEQVCVNSPGSYTCHCDGRGGLKLSQDMDTCEDILPCVPFSVAKSVKSLYLGRMFSGTPVIRLRFKRLQPTRLVAEFDFRTFDPEGILLFAGGHQDSTWIVLALRAGRLELQLRYNGVGRVTSSGPVINHGMWQTISVEELARNLVIKVNRDAVMKIAVAGDLFQPERGLYHLNLTVGGIPFHEKDLVQPINPRLDGCMRSWNWLNGEDTTIQETVKVNTRMQCFSVTERGSFYPGSGFAFYSLDYMRTPLDVGTESTWEVEVVAHIRPAADTGVLFALWAPDLRAVPLSVALVDYHSTKKLKKQLVVLAVEHTALALMEIKVCDGQEHVVTVSLRDGEATLEVDGTRGQSEVSAAQLQERLAVLERHLRSPVLTFAGGLPDVPVTSAPVTAFYRGCMTLEVNRRLLDLDEAAYKHSDITAHSCPPVEPAAA",significantly upregulating Akt phosphorylation levels,
"Gas6-LamininG active peptide: sequence of EGF-LamininG functional domain of Gas6 protein, amino acid sequence SEQ ID NO.1 (protein, the amino acid sequence of the active peptide) DQCTPNPCDRKGTQACQDLMGNFFCLCKAGWGGRLCDKDVNECSQENGGCLQICHNKPGSFHCSCHSGFELSSDGRTCQDIDECADSEACGEARCKNLPGSYSCLCDEGFAYSSQEKACRDVDECLQGRCEQVCVNSPGSYTCHCDGRGGLKLSQDMDTCEDILPCVPFSVAKSVKSLYLGRMFSGTPVIRLRFKRLQPTRLVAEFDFRTFDPEGILLFAGGHQDSTWIVLALRAGRLELQLRYNGVGRVTSSGPVINHGMWQTISVEELARNLVIKVNRDAVMKIAVAGDLFQPERGLYHLNLTVGGIPFHEKDLVQPINPRLDGCMRSWNWLNGEDTTIQETVKVNTRMQCFSVTERGSFYPGSGFAFYSLDYMRTPLDVGTESTWEVEVVAHIRPAADTGVLFALWAPDLRAVPLSVALVDYHSTKKLKKQLVVLAVEHTALALMEIKVCDGQEHVVTVSLRDGEATLEVDGTRGQSEVSAAQLQERLAVLERHLRSPVLTFAGGLPDVPVTSAPVTAFYRGCMTLEVNRRLLDLDEAAYKHSDITAHSCPPVEPAAA",significantly upregulating Akt phosphorylation levels,an effect of enhancing the phagocytic functions of retinal pigment epithelium
